One substance from patent publication US5677146 can be followed below.

The term % Inhibition denotes the relative decrease from the control value, in per cent.

The target of test [1] is recombinant human activated protein C (5 nM), Novo Nordisk A/S (human) (UniProt P04070).
Test [2] concerns the target human Factor XIa (1 nM) (human) (UniProt P03951).
In test [3] the target is T1, Cathepsin G, purified at Novo Nordisk A/S using the method of Baugh and Travis.
T1 sequence (P08311 21-244, species assumed, looked up): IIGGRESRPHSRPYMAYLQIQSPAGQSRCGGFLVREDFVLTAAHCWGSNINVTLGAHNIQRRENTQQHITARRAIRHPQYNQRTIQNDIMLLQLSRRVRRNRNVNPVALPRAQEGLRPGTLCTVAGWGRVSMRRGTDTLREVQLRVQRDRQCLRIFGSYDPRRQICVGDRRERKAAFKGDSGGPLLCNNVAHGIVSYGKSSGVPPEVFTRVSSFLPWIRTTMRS

The target in test [4] is Urokinase (5 nM), Serono, Freigung, Germany.
In test [5] the target is Leukocyte Elastase, purified at Novo Nordisk A/S using the method of Baugh and Travis.
Test [6] addresses Chymotrypsin (2.5 nM), Novo Nordisk A/S.
The target in test [7] is recombinant human Factor VIIa (300 nM), Novo Nordisk A/S (human) (UniProt P08709).
Test [8] addresses human Factor XIIa (30 nM) (human) (UniProt P00748).
In test [9] the target is Trypsin (8 nM), Novo Nordisk A/S, Bagsvaerd, Denmark.
Test [10] addresses glandular kallikrein (1 U/ml), Sigma, St Louis, MO.
In test [11] the target is human Factor Xa (3 nM) (human) (UniProt P00742).
In test [12] the target is plasma kallikrein (3 nM), Kabi.

“APPH Kunitz-type inhibitor domain as tested in Table 3”: the % Inhibition in test [1] worked out at 0%; in [2], 99.8%; in test [3], 0%; in [4], 2%; in test [5], 4%; in test [6] it was 61%. The % Inhibition in test [7] was 15%; in test [8] it was 6%; in [9], 99.6%; in [10] it was 97%; with Plasmin (10 nM), Kabi, 77%; in test [11], 0%. This substance also showed a % Inhibition in [12] of 69%.
